The target in the assay is T1, sstr3 (UniProt P32745 1-418, limits assumed).
T1 construct: whole, on cells; Membranes of transfected CHO-K1 cells; The species is printed only for sstr2 (human); also called somatostatin receptor subtype 3
Description: competitive filtration binding assay, displacement of [^125I]-Tyr-somatostatin-14 (0.2 nM) from CHO-K1 membranes. On the procedure: Membranes from Chinese hamster ovary K1 cells transfected with sstr1, sstr2, sstr3, sstr5, and [¹²⁵I]-Tyr-somatostatin-14 were obtained from PerkinElmer. A standard filtration binding assay was performed in 96-well plates (MultiScreen; Millipore) to determine the binding affinities (inhibition constant, or Kᵢ) of AMBF₃-TATE against different receptor subtypes. Briefly, membranes ([…]) were incubated with the ¹²⁵I-labelled standard at a concentration of 0.05 nM for sstr2 or 0.2 nM for other subtypes. Increasing concentrations of AMBF₃-TATE were added to the wells in buffer (25 mM N-2-hydroxyethylpiperazine-N-2-ethanesulfonic acid, pH 7.4; 10 mM MgCl₂; 1 mM CaCl₂; and 0.5% bovine serum albumin). After incubation (37° C., 1 h), the wells were aspirated and washed 8 times with 50 mM ice-cold buffer (Tris-HCl, pH 7.4) over grade GF/B filters. The filters were removed and counted by a γ counter (Cobra II; Packard). Data were fitted to a 1-site competition model (GraphPad Prism 6.1 software) to calculate Kᵢ.

Bridge positions count the residues as written; N and C are the ends. Square brackets hold non-standard residues; d marks the D form. AMBF3 = N,N-dimethylammoniomethyl-trifluoroborate

T1 sequence (P32745 whole entry): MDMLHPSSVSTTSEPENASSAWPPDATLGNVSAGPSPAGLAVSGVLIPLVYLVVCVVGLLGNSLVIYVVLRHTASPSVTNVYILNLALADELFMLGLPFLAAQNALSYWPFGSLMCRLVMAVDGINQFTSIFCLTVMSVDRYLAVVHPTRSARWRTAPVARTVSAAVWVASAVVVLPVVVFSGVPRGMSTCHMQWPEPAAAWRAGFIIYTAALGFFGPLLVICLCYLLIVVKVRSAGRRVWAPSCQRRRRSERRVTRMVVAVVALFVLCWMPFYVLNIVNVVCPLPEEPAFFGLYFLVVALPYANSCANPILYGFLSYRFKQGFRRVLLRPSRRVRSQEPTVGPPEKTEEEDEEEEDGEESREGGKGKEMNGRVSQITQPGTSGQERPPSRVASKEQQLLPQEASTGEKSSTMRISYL

B1: AMBF3-TATE (peptide)
peptide: {AMBF3-triazolylacetyl}-[dF]CY[dW]KTCT-OH
modifications: disulfide 2-7
notes: Free C-terminal acid (octreotate); also called ^19F-AMBF3-TATE; ^18F-AMBF3-TATE
With B1, the Ki was determined as 28.4 nM.

The values above are taken from patent publication US20160333068A1 (BRITISH COLUMBIA CANCER AGENCY BRANCH, published 2016).
